# Experiment: soluble on expression in E. coli; label from the status in PepcDB or PDB records
row,Sequence,soluble on expression in E. coli
1,MTYVLAESPEFYQDNVTDYTGQISSSDITNIQAAIDDVKASEQKVIFVVFLSSFDGVDPETWTQQALQANGGGNVLIYALAPEERQYGIQGGTQWTDAELDAANNAAFQALSQEDWAGSALALAESVGSSSSSSLEHHHHHH,not soluble
2,MAHHHHHHMLKELNLNTTFLRQDYRTPLKQLSVDPIFCRRRGGRAILHFEMNQVQGTVAVTLTGCVAQACVPHACGAGWGNMKVEQLRSFFLSFVVVADAAQPSYFLWGEVSVHEMNGTAGNHLAIDGQSLRTCTTASVIPPLSEIPPEVFIVKAKKFRCQMHEKGFGDSTTCP,not soluble
3,MGDILAHESELLGLVKEYLDFAEFEDTLKTFSKECKIKGKPLCKTVGGSFRDSKSLTIQKDLVAAFDNGDQKVFFDLWEEHISSSIRDGDSFAQKLEFYLHIHFAIYFLKYSVGRPDKEELDEKISYFKTYLETKGAALSQTTEFLPFYALPFVPNPMVHPSFKELFQDSWTPELKLKLEKFLALISKASNTPKLLTIYKENGQSNKEILQQLHQQLVEAERRSVTYLKRYNKIQADYHNLIGVTAELVDSLEATVSGKMITPEYLQSVCVRLFSNQMRQSLAHSVDFTRPGTASTMLRASLAPVKLKDVPLLPSLDYEKLKKDLILGSDRLKAFLLQALRWRLTTSHPGEQRETVLQAYISNDLLDCYSHNQRSVLQLLHSTSDVVRQYMARLINAFASLAEGRLYLAQNTKVLQMLEGRLKEEDKDIITRENVLGALQKFSLRRPLQTAMIQDGLIFWLVDVLKDPDCLSDYTLEYSVALLMNLCLRSTGKNMCAKVAGLVLKVLSDLLGHENHEIQPYVNGALYSILSVPSIREEARAMGMEDILRCFIKEGNAEMIRQIEFIIKQLNSEELPDGVLESDDDEDEDDEEDHDIMEADLDKDELIQPQLGELSGEKLLTTEYLGIMTNTGKTRRKGLANVQWSGDEPLQRPVTPGGHRNGYPV,not soluble
4,MSLNNIAPQSPVMRRLTLQDNPAIASVIRQVYAEYGLTADKGYTVADPNLDELYQVYSQPGHAYWVVEYNGEVVGGGGIAPLTGSEADICELQKMYFLPAIRGKGLAKKLALMAMEQAREMGFKRCYLETTAFLKEAIALYEHLGFEHIDYALGCTGHVDCEVRMLRELEGHHHHHH,not soluble
5,GERRIPESRILRREVVEATSAVAAALQIPARAPVIEMTRVRLIDGAPMLAEEIWLPYDRFAAFSRLELDSIGDLLYPVYEAHCNQIVASATETLTVEAIGPAHARLLRIEPGTPAVVIERLAYGYDRRPLEWRRSRGPASEFIYQAEIR,not soluble
6,MTVQQKIASGRSSGRTVSQERLNQLSEQTRRAIAQLEPVTLDWVAPVATDMDVAVIGGGQSGVAIAFGLRRAGIRRVQVFDAATPETAGVWNTIARMHTLRAGKGFTGLEQGIPELTFEHWYVALHGDAAFAAMAEIPRTVWLDYLNWYRETAGIDVRWQHRLISIDPRSDAENAPLNLRFELQDKGVIDLSTQTIVLATGLDGLGEPYIPSVLSHTLPPDRLVHTNDLINFSSLRGLSVGVVGAAASAFDAAAVALEHGAASVHQFVRHGDLVEANDQAAARPSADKLFFPEFDDAMRWRLILERRRRSSAPDAAIARACQHPNHYLHFNVAAEQIVALGDDIVARTTTGDIMLDTVIAATGYRQNVYARPELTAAAPHILLWQDRVAAAEGESGWSSHPYLGKGFELQEIEPGSAPWLKRIHVYTFAAIISHGIHAGDIGSAAIALPRLIAAVARSLFIHARADYERLASLGPSIAVDRVAPSPVSGPWEAAPLEHHHHHH,soluble
7,LGIAGLRYTFTFAVATAPSELLNITWYSAVSAAFNGALKFSITPLLPLGPITDERVEVSITALTPLSGVRSTSTALTPVRLCSAFAILFTDTKAEKLEFFEDTTERVDGDAVIPHTVNSETAALPTPFS,not soluble
8,MPLVSMKEMLNKALEGKYAVGQFNMNNLEWTQAILAAAEEEKSPVILGVSEGAARHMTGFKTVVAMVKALIEEMNITVPVAIHLDHGSSFEKCKEAIDAGFTSVMIDASHHPFEENVETTKKVVEYAHARNVSVEAELGTVGGQEDDVIAEGVIYADPAECKHLVEATGIDCLAPALGSVHGPYKGEPNLGFAEMEQVRDFTGVPLVLHGGTGIPTADIEKAISLGTSKINVNTENQIEFTKAVREVLNKDQEVYDPRKFIGPGRDAIKATVIGKIREFGSNGKA,not soluble
9,METPYHQRWLAFPDAVSSYRPLESRLAGTSRATADNRTPCTGRLGTPRVFLMATDDVSKAYSSPTFDAEALLGTVISAEDPDRVLIEPWATGVDGVILDVGSGTGRWTGHLASLGHQIEGLEPATRLVELARQTHPSVTFHHGTITDLSDSPKRWAGLLAWYSLIHMGPGELPDALVALRMAVEDGGGLLMSFFSGPSLEPMYHPVATAYRWPLPELAQALETAGFQVTSSHWDPRFPHAYLTAEASLEHHHHHH,soluble
10,MKEALEAALREILGPGEVVALRRLPGGASKEAWAVDYRTGEALHPLFLRRAGGGVIYSKTLALAEEFRLLQVAWAHGVKVPEPLHYFPDLEGREAFLMRRLEGETIGARVVRRPELARARETLPQAMAEELAKIHALSPDEVPFLQPPSLPSWRPALKKACRDLNALGKPHPALKWGMRWLLTHPPRELPPVVVHGDFRVGNLLVNGEGLVAVLDWEFAHLGDPREDLAWPLVRAWRFGEDGKRLGGVGEVGPFLERYNALTGRDIAEEELFWWEVLGNVRWGLGALKQARRHLRGEERSVELAVLGRLASEMEYEVLHLLERYG,soluble
11,VPVPPAADHKGWDFVEGYFHQFFLTKKESPLLTQETQTQLLQQFHRNGTDLLDMQMHALLHQPHCGVPDGSDTSISPGRCKWNKHTLTYRIINYPHDMKPSAVKDSIYNAVSIWSNVTPLIFQQVQNGDADIKVSFWQWAHEDGWPFDGPGGILGHAFLPNSGNPGVVHFDKNEHWSASDTGYNLFLVATHEIGHSLGLQHSGNQSSIMYPTYWYHDPRTFQLSADDIQRIQHLYGEKCSSDIP,soluble
12,MKQLYWYTCGEGDCDLVLLHGWGLNSGVWHCIIDRLAPHFRLHLVDLPGYGRSQDYGAMSLADMAERVAQQAPKQALWLGWSMGGLVASQIALSQPECVRGLITVSSSPCFTARDEWPGIKPEVLAGFQHQLSDDFHRTVERFLALQTLGTESSRQDARLLKSVVLQHQMPDVEVLTGGLAILRTADLRTALAGFTLPFMRVYGHLDSLVPRKVASLLDSAWPQTQSVVMQGAAHAPFISHPNDFAKLILNFAEENKK,not soluble
13,MTNPQFAGHPFGTTVTAETLRNTFAPLTQWEDKYRQLIMLGKQLPALPDELKAQAKEIAGCENRVWLGYTVAENGKMHFFGDSEGRIVRGLLAVLLTAVEGKTAAELQAQSPLALFDELGLRAQLSASRSQGLNALSEAIIAATKQV,not soluble
14,MAHHHHHHMHPPSSGQGLFPRYGGGWMHQFGHVYALQQELLDPNANNWFRAVELWHTARQEGVAMNVSHFTSILRQCVQPGAWAQSLQVLKQMKRENVRPDVVGVGCALAACVEGKHYDEVENIFATFHKTMLLDSVCHLALIRARQESGNAKGAIAAGKQQQADQVPFLPYTYTHLLEACNAEDDAAYAMELVRNMHSEQWVPSQCAMLAIEDLGRRHERLAAFSRPLLSASDKADSALPSFDASRRLLPPEW,not soluble
15,AELTALESLIEMGFPRGRAEKALALTGNQGIEAAMDWLMEHEDDPDVDEPL,soluble
16,MGSDKIHHHHHHMNDFIKFTGPADVLAFIPHTLGQTPTESFVALTMQGNKIGATLRVDAPFGQDPVGYAQTIVSYLTADEAATGSLLVIYTDESTTDGSSPYAGHVQALSTELETAGMPLQDAWLVTSELWRNYHCTDTGCCPDQPLDAITTSNGNAALIYRGSAVTGFIAPAPFTGDETAREAITARKPDGWPEDLEASRAAWARVLKDPKSLTTETAYQLAGALQHPTIRDYMMGDIVPHAPEQFTSVMLGVFPTRPDWARVDTAQEVAFELMKATPEGQRAPMLCLIGWLEWLKGQSSFAARYFKLALEDTAGYRLAELLDELVNRGLLADCSRDRKKAYDRRLKR,not soluble
17,SAFQKAASLLGAPIGHDFCVISLSDLMTPWERIERRILAAAQADFVTAVYNPKSDGRYWQIYRLREIFLREGRSPETPVGYVRQAGREEQEIHITTLAAFDPETVDMFTVVLIGNSQTY,not soluble
